From article PMC6486709 come the findings set out here.

Substrate in the series: C/C(=C\Cc1c(O)c(Cl)c(C)c(C=O)c1O)CC/C=C(\C)[C@@H](O)C[C@@H]1OC1(C)C
Description: cells, lysate or membranes. The note with it: microsomal fraction of ascI-expressing yeast.

B1: AscI (Acremonium egyptiacum) (protein)
chain: MPQLAGKLILAGLIPLGAWVLHGFASCNGLIQMFEDFGKQTVLSDGVTDYTGAFTGLEGLDRLLRTLLNFFWPVANGHDWALSLHAFMFAGQGVPLLVLNMLEGARPGNKSLVVSYVTVFGILYMVVGLAIMAPLYLFLHLLTSRTATAPSKAKVAVDPNTAKAVGFGVFVGYVLPTIFMSLPHPSLLSTDTKVLSVVFWQAVPLWASVCAYFASTALGQSATSRSSSNLPSALGAVYAASLIIATATHVATFAISANLSDTWSGIFTFLIPPNPFNTDMRISSFLEGATWFLQWDYTMMSLAYMVWAIGIRHGVEVPRSSHHFETLGKIALRSMAKLLVMGPIGAALSLVWERDQLLWQLDSESGEKGEKNRSRRMSRKWMFS
On to B1, for which the Km amounted to 50.4 ± 11.1 µM.
